Our source for the percent of parent values is PMC9889962.

For this test, the target named is recombinant human FcγRI receptor (CD64) (UniProt P12314). Description: SPR. The settings on record: immobilized human FcγRI (CD64); parent: est. 100; read off a plot.
recombinant human FcγRI receptor (CD64), sequence (P12314 16-374): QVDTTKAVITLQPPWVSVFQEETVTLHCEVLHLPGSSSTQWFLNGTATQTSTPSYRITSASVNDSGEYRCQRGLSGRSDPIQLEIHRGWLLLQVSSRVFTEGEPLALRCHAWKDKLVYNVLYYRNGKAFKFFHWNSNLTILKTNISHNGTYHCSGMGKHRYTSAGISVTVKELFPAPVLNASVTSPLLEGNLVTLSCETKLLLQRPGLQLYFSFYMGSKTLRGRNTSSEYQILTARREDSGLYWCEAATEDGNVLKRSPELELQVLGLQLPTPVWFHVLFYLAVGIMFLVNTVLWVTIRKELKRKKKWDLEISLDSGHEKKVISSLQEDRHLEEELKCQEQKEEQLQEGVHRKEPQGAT
With IgG1 (control) LALA, the percent of parent stood at 27%.

Regarding IgG1 (control) Agly, the percent of parent is 24%.

For IgG1 (control) LAGA, the percent of parent is 8.5%.

Consider IgG1 (control) DAPA, for which the percent of parent turned out to be 34%.

With IgG1 (control) Sigma, the percent of parent was found to be 3.5%.

For the substance IgG1 (control) FQQ, the percent of parent came to 32%.

For the substance IgG1 (control) LGGR, the percent of parent is 6%.

With IgG1 (control) LALE, the percent of parent was 8%.

Take IgG1 (control) LALAKA: the percent of parent was determined as 26%.

As to IgG1 (control) FES, the percent of parent amounted to 21%.
